Data on 1 molecule can be found in paper PMC3461516 (The Journal of Cell Biology, 2012).

The test has as its target His6-Mad2 (recombinant human Mad2) (human, UniProt Q13257 1-205). Description: pull-down.

His6-Mad2 (recombinant human Mad2), sequence (Q13257 whole entry): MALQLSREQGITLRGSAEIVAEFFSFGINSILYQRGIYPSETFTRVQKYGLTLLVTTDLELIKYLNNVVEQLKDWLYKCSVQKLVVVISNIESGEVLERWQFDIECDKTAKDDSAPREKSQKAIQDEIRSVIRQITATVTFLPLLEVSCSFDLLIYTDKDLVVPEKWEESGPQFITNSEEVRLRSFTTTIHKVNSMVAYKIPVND

B1: GST-Cdc20^N151 (first 151 amino acids of human Cdc20), wild type (domain or fragment)
chain: MAQFAFESDLHSLLQLDAPIPNAPPARWQRKAKEAAGPAPSPMRAANRSHSAGRTPGRTPGKSSSKVQTTPSKPGGDRYIPHRSAAQMEVASFLLSKENQPENSQTPTKKEHQKAWALNLNGFDVEEAKILRLSGKPQNAPEGYQNRLKVL
As to B1, the binding result is “binds”.
